Earlier results as cited in PMC5934386.
Read-outs that look alike come from different tables or passages of the source.

Assays:
[1] = molecular target: Ubiquitin (Homo sapiens) (UniProt P0CG47)
[2] = molecular target: Ubiquitin (Homo sapiens) (UniProt P0CG47); assay: NMR

Chain of yeast E2-25K (P21734 whole entry): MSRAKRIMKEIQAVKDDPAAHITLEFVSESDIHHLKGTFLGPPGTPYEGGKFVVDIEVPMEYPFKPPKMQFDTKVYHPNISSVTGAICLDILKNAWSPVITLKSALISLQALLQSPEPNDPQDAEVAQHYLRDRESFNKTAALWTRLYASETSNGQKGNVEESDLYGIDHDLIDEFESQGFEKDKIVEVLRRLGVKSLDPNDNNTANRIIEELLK
Chain of E2-25K UBA (P61086 157-200): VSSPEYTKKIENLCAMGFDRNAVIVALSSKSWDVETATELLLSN

Row | Kd [1] [µM] | Kd [2] [µM] | Substance
1 | 1200 |  | E2-25K UBA (from UniProt P61086)
2 |  | 228 | yeast E2-25K (from UniProt P21734)
